# B1: Twister Ribozyme (parent)
# chain: AACACUGCCAAUGCCGGUCCCAAGCCCGGAUAAAAGUGGAGGGGGCGG
# Variants of: B1
# Experiment: self-cleavage, relative activity (ratio to wild type); higher = more cleavage; co-transcriptional
row,Variant,self-cleavage
1,C14G U31A,0.153
2,C14G U31C,0.142
3,C14G U31G,0.158
4,C14G U37A,0.0885
5,C14G U37C,0.0984
6,C14U,1.1
7,C14U A22U,0.848
8,C14U A30G,1.02
9,C14U A32U,1.04
10,C14U A33C,0.97
11,C14U A33G,0.927
12,C14U A34G,0.885
13,C14U A35C,1.05
14,C14U A35G,0.917
15,C14U A35U,1.03
16,C14U A40C,0.256
17,C14U A40U,0.191
18,C14U C15A,0.636
19,C14U C15U,1.51
20,C14U C19A,0.429
21,C14U C19U,1.14
22,C14U C20A,0.154
23,C14U C20U,0.942
24,C14U C21G,0.108

row,Variant,self-cleavage
1,C14U C25A,0.27
2,C14U C25U,0.909
3,C14U C26A,0.497
4,C14U C26G,0.235
5,C14U C27A,0.586
6,C14U C27U,0.896
7,C14U C46A,1.05
8,C14U G16A,0.871
9,C14U G16C,0.36
10,C14U G17A,0.538
11,C14U G24A,0.173
12,C14U G24C,0.102
13,C14U G24U,0.135
14,C14U G28U,1.08
15,C14U G29C,1.09
16,C14U G36A,0.789
17,C14U G38U,0.904
18,C14U G42A,0.456
19,C14U G45A,0.999
20,C14U G45C,0.713
21,C14U G45U,0.964
22,C14U G47C,0.616
23,C14U G47U,1
24,C14U G48U,1.17

row,Variant,self-cleavage
1,C14U U18G,0.0637
2,C14U U31A,0.92
3,C14U U31G,0.941
4,C14U U37C,0.602
5,C15A,0.801
6,C15A A22G,0.141
7,C15A A22U,0.24
8,C15A A23C,0.0415
9,C15A A30C,0.648
10,C15A A30U,0.89
11,C15A A33C,0.538
12,C15A A34U,0.273
13,C15A A40C,0.136
14,C15A A40G,0.107
15,C15A C19A,0.0896
16,C15A C19G,0.151
17,C15A C19U,0.566
18,C15A C20A,0.0707
19,C15A C20U,0.397
20,C15A C21A,0.133
21,C15A C21U,0.0997
22,C15A C25G,0.192
23,C15A C26U,0.0725
24,C15A C27A,0.18

row,Variant,self-cleavage
1,C15A C27U,0.0943
2,C15A C46G,0.525
3,C15A C46U,0.623
4,C15A G17A,0.061
5,C15A G17U,0.0769
6,C15A G24U,0.0837
7,C15A G28C,0.757
8,C15A G28U,0.736
9,C15A G29C,0.156
10,C15A G29U,0.607
11,C15A G36C,0.0919
12,C15A G36U,0.142
13,C15A G38U,0.355
14,C15A G39C,0.124
15,C15A G39U,0.172
16,C15A G41U,0.177
17,C15A G42A,0.156
18,C15A G43C,0.17
19,C15A G43U,0.258
20,C15A G44A,0.79
21,C15A G44C,0.57
22,C15A G44U,0.661
23,C15A G45U,0.528
24,C15A G47A,0.39

row,Variant,self-cleavage
1,C15A U18A,0.0699
2,C15A U18C,0.104
3,C15A U31C,0.718
4,C15A U37G,0.0756
5,C15G,0.101
6,C15G A22G,0.0636
7,C15G A22U,0.0572
8,C15G A23C,0.137
9,C15G A23U,0.06
10,C15G A30U,0.108
11,C15G A32C,0.112
12,C15G A33U,0.121
13,C15G A34G,0.103
14,C15G A34U,0.109
15,C15G A35C,0.123
16,C15G A35G,0.0859
17,C15G A40U,0.0313
18,C15G C19U,0.0895
19,C15G C20G,0.0898
20,C15G C20U,0.0686
21,C15G C26G,0.0537
22,C15G G16A,0.498
23,C15G G16C,0.305
24,C15G G16U,0.814

row,Variant,self-cleavage
1,C15G G17A,0.326
2,C15G G17C,0.157
3,C15G G17U,0.319
4,C15G G24A,0.0815
5,C15G G24C,0.0723
6,C15G G24U,0.0758
7,C15G G28A,0.624
8,C15G G28C,0.599
9,C15G G29A,0.104
10,C15G G29C,0.0981
11,C15G G36C,0.0921
12,C15G G36U,0.0831
13,C15G G38C,0.0527
14,C15G G38U,0.0777
15,C15G G39A,0.0759
16,C15G G41C,0.0823
17,C15G G42C,0.0975
18,C15G G43C,0.0538
19,C15G G43U,0.104
20,C15G G44A,0.0802
21,C15G G45A,0.113
22,C15G G45C,0.0924
23,C15G G45U,0.133
24,C15G G47A,0.0633

row,Variant,self-cleavage
1,C15G G47C,0.0669
2,C15G G47U,0.0543
3,C15G G48C,0.0718
4,C15G U18A,0.04
5,C15G U18C,0.048
6,C15G U31A,0.186
7,C15U,0.975
8,C15U A22C,0.932
9,C15U A22U,0.703
10,C15U A23C,0.134
11,C15U A23G,0.297
12,C15U A32U,0.958
13,C15U A34G,0.806
14,C15U A35C,0.863
15,C15U A40C,0.148
16,C15U A40G,0.162
17,C15U A40U,0.15
18,C15U C19A,0.228
19,C15U C20A,0.176
20,C15U C20G,0.135
21,C15U C21A,0.138
22,C15U C21U,0.101
23,C15U C25A,0.178
